Measured values from publication PMC7545097, “Mapping the native interaction surfaces of PREP1 with PBX1 by cross-linking mass-spectrometry and mutagenesis” (Scientific Reports, 2020).

T1: PREP1_(1-436), wild-type recombinant (TR-FIA) (UniProt P55347 1-436)
T1 construct: also called wild-type PREP1; PKNOX1; source: E. coli, purified
T1 sequence (looked up): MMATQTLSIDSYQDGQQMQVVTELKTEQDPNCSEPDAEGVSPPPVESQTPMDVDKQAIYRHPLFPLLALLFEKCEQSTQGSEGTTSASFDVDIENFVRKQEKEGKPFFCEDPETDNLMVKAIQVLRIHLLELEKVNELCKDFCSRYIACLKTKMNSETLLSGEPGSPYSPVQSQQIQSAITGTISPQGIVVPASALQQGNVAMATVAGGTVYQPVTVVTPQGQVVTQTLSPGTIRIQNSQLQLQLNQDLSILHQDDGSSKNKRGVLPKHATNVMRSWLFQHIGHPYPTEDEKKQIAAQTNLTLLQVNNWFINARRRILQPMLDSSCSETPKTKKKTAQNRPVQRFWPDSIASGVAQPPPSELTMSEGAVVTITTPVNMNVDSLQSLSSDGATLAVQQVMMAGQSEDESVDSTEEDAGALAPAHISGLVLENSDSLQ

B1: PBX1 I84A (natural protein, human, UniProt P40424 1-430, looked up)
chain: MDEQPRLMHSHAGVGMAGHPGLSQHLQDGAGGTEGEGGRKQDIGDILQQIMTITDQSLDEAQARKHALNCHRMKPALFNVLCEAKEKTVLSIRGAQEEEPTDPQLMRLDNMLLAEGVAGPEKGGGSAAAAAAAAASGGAGSDNSVEHSDYRAKLSQIRQIYHTELEKYEQACNEFTTHVMNLLREQSRTRPISPKEIERMVSIIHRKFSSIQMQLKQSTCEAVMILRSRFLDARRKRRNFNKQATEILNEYFYSHLSNPYPSEEAKEELAKKCGITVSQVSNWFGNKRIRYKKNIGKFQEEANIYAAKTAVTATNVSAHGSQANSPSTPNSAGSSSSFNMSNSGDLFMSVQSLNGDSYQGAQVGANVQSQVDTLRHVISQTGGYSDGLAASQMYSPQGISANGGWQDATTPSSVTSPTEGPGSVHSDTSN
notes: PBX1, residues 1-430; source: E. coli, purified
B2: PBX1 L77A/I84A (natural protein, human, UniProt P40424 1-430, looked up)
chain: MDEQPRLMHSHAGVGMAGHPGLSQHLQDGAGGTEGEGGRKQDIGDILQQIMTITDQSLDEAQARKHALNCHRMKPAAFNVLCEAKEKTVLSIRGAQEEEPTDPQLMRLDNMLLAEGVAGPEKGGGSAAAAAAAAASGGAGSDNSVEHSDYRAKLSQIRQIYHTELEKYEQACNEFTTHVMNLLREQSRTRPISPKEIERMVSIIHRKFSSIQMQLKQSTCEAVMILRSRFLDARRKRRNFNKQATEILNEYFYSHLSNPYPSEEAKEELAKKCGITVSQVSNWFGNKRIRYKKNIGKFQEEANIYAAKTAVTATNVSAHGSQANSPSTPNSAGSSSSFNMSNSGDLFMSVQSLNGDSYQGAQVGANVQSQVDTLRHVISQTGGYSDGLAASQMYSPQGISANGGWQDATTPSSVTSPTEGPGSVHSDTSN
notes: as for B1
B3: PBX1 L77A/V80A (natural protein, human, UniProt P40424 1-430, looked up)
chain: MDEQPRLMHSHAGVGMAGHPGLSQHLQDGAGGTEGEGGRKQDIGDILQQIMTITDQSLDEAQARKHALNCHRMKPAAFNALCEIKEKTVLSIRGAQEEEPTDPQLMRLDNMLLAEGVAGPEKGGGSAAAAAAAAASGGAGSDNSVEHSDYRAKLSQIRQIYHTELEKYEQACNEFTTHVMNLLREQSRTRPISPKEIERMVSIIHRKFSSIQMQLKQSTCEAVMILRSRFLDARRKRRNFNKQATEILNEYFYSHLSNPYPSEEAKEELAKKCGITVSQVSNWFGNKRIRYKKNIGKFQEEANIYAAKTAVTATNVSAHGSQANSPSTPNSAGSSSSFNMSNSGDLFMSVQSLNGDSYQGAQVGANVQSQVDTLRHVISQTGGYSDGLAASQMYSPQGISANGGWQDATTPSSVTSPTEGPGSVHSDTSN
notes: as for B1
B4: PBX1 L77A/V80A/L81A (natural protein, human, UniProt P40424 1-430, looked up)
chain: MDEQPRLMHSHAGVGMAGHPGLSQHLQDGAGGTEGEGGRKQDIGDILQQIMTITDQSLDEAQARKHALNCHRMKPAAFNAACEIKEKTVLSIRGAQEEEPTDPQLMRLDNMLLAEGVAGPEKGGGSAAAAAAAAASGGAGSDNSVEHSDYRAKLSQIRQIYHTELEKYEQACNEFTTHVMNLLREQSRTRPISPKEIERMVSIIHRKFSSIQMQLKQSTCEAVMILRSRFLDARRKRRNFNKQATEILNEYFYSHLSNPYPSEEAKEELAKKCGITVSQVSNWFGNKRIRYKKNIGKFQEEANIYAAKTAVTATNVSAHGSQANSPSTPNSAGSSSSFNMSNSGDLFMSVQSLNGDSYQGAQVGANVQSQVDTLRHVISQTGGYSDGLAASQMYSPQGISANGGWQDATTPSSVTSPTEGPGSVHSDTSN
notes: as for B1
B5: PBX1 L81A (natural protein, human, UniProt P40424 1-430, looked up)
chain: MDEQPRLMHSHAGVGMAGHPGLSQHLQDGAGGTEGEGGRKQDIGDILQQIMTITDQSLDEAQARKHALNCHRMKPALFNVACEIKEKTVLSIRGAQEEEPTDPQLMRLDNMLLAEGVAGPEKGGGSAAAAAAAAASGGAGSDNSVEHSDYRAKLSQIRQIYHTELEKYEQACNEFTTHVMNLLREQSRTRPISPKEIERMVSIIHRKFSSIQMQLKQSTCEAVMILRSRFLDARRKRRNFNKQATEILNEYFYSHLSNPYPSEEAKEELAKKCGITVSQVSNWFGNKRIRYKKNIGKFQEEANIYAAKTAVTATNVSAHGSQANSPSTPNSAGSSSSFNMSNSGDLFMSVQSLNGDSYQGAQVGANVQSQVDTLRHVISQTGGYSDGLAASQMYSPQGISANGGWQDATTPSSVTSPTEGPGSVHSDTSN
notes: as for B1
B6: PBX1 L105A (natural protein, human, UniProt P40424 1-430, looked up)
chain: MDEQPRLMHSHAGVGMAGHPGLSQHLQDGAGGTEGEGGRKQDIGDILQQIMTITDQSLDEAQARKHALNCHRMKPALFNVLCEIKEKTVLSIRGAQEEEPTDPQAMRLDNMLLAEGVAGPEKGGGSAAAAAAAAASGGAGSDNSVEHSDYRAKLSQIRQIYHTELEKYEQACNEFTTHVMNLLREQSRTRPISPKEIERMVSIIHRKFSSIQMQLKQSTCEAVMILRSRFLDARRKRRNFNKQATEILNEYFYSHLSNPYPSEEAKEELAKKCGITVSQVSNWFGNKRIRYKKNIGKFQEEANIYAAKTAVTATNVSAHGSQANSPSTPNSAGSSSSFNMSNSGDLFMSVQSLNGDSYQGAQVGANVQSQVDTLRHVISQTGGYSDGLAASQMYSPQGISANGGWQDATTPSSVTSPTEGPGSVHSDTSN
notes: PBX1, residues 1-430; single alanine substitution; source: E. coli, purified
B7: PBX1 L105A/L108A (natural protein, human, UniProt P40424 1-430, looked up)
chain: MDEQPRLMHSHAGVGMAGHPGLSQHLQDGAGGTEGEGGRKQDIGDILQQIMTITDQSLDEAQARKHALNCHRMKPALFNVLCEIKEKTVLSIRGAQEEEPTDPQAMRADNMLLAEGVAGPEKGGGSAAAAAAAAASGGAGSDNSVEHSDYRAKLSQIRQIYHTELEKYEQACNEFTTHVMNLLREQSRTRPISPKEIERMVSIIHRKFSSIQMQLKQSTCEAVMILRSRFLDARRKRRNFNKQATEILNEYFYSHLSNPYPSEEAKEELAKKCGITVSQVSNWFGNKRIRYKKNIGKFQEEANIYAAKTAVTATNVSAHGSQANSPSTPNSAGSSSSFNMSNSGDLFMSVQSLNGDSYQGAQVGANVQSQVDTLRHVISQTGGYSDGLAASQMYSPQGISANGGWQDATTPSSVTSPTEGPGSVHSDTSN
notes: as for B1
B8: PBX1 L105A/L108A/L112A (natural protein, human, UniProt P40424 1-430, looked up)
chain: MDEQPRLMHSHAGVGMAGHPGLSQHLQDGAGGTEGEGGRKQDIGDILQQIMTITDQSLDEAQARKHALNCHRMKPALFNVLCEIKEKTVLSIRGAQEEEPTDPQAMRADNMALAEGVAGPEKGGGSAAAAAAAAASGGAGSDNSVEHSDYRAKLSQIRQIYHTELEKYEQACNEFTTHVMNLLREQSRTRPISPKEIERMVSIIHRKFSSIQMQLKQSTCEAVMILRSRFLDARRKRRNFNKQATEILNEYFYSHLSNPYPSEEAKEELAKKCGITVSQVSNWFGNKRIRYKKNIGKFQEEANIYAAKTAVTATNVSAHGSQANSPSTPNSAGSSSSFNMSNSGDLFMSVQSLNGDSYQGAQVGANVQSQVDTLRHVISQTGGYSDGLAASQMYSPQGISANGGWQDATTPSSVTSPTEGPGSVHSDTSN
notes: as for B1
B9: PBX1 L108A (natural protein, human, UniProt P40424 1-430, looked up)
chain: MDEQPRLMHSHAGVGMAGHPGLSQHLQDGAGGTEGEGGRKQDIGDILQQIMTITDQSLDEAQARKHALNCHRMKPALFNVLCEIKEKTVLSIRGAQEEEPTDPQLMRADNMLLAEGVAGPEKGGGSAAAAAAAAASGGAGSDNSVEHSDYRAKLSQIRQIYHTELEKYEQACNEFTTHVMNLLREQSRTRPISPKEIERMVSIIHRKFSSIQMQLKQSTCEAVMILRSRFLDARRKRRNFNKQATEILNEYFYSHLSNPYPSEEAKEELAKKCGITVSQVSNWFGNKRIRYKKNIGKFQEEANIYAAKTAVTATNVSAHGSQANSPSTPNSAGSSSSFNMSNSGDLFMSVQSLNGDSYQGAQVGANVQSQVDTLRHVISQTGGYSDGLAASQMYSPQGISANGGWQDATTPSSVTSPTEGPGSVHSDTSN
notes: as for B6
B10: PBX1 L112A (natural protein, human, UniProt P40424 1-430, looked up)
chain: MDEQPRLMHSHAGVGMAGHPGLSQHLQDGAGGTEGEGGRKQDIGDILQQIMTITDQSLDEAQARKHALNCHRMKPALFNVLCEIKEKTVLSIRGAQEEEPTDPQLMRLDNMALAEGVAGPEKGGGSAAAAAAAAASGGAGSDNSVEHSDYRAKLSQIRQIYHTELEKYEQACNEFTTHVMNLLREQSRTRPISPKEIERMVSIIHRKFSSIQMQLKQSTCEAVMILRSRFLDARRKRRNFNKQATEILNEYFYSHLSNPYPSEEAKEELAKKCGITVSQVSNWFGNKRIRYKKNIGKFQEEANIYAAKTAVTATNVSAHGSQANSPSTPNSAGSSSSFNMSNSGDLFMSVQSLNGDSYQGAQVGANVQSQVDTLRHVISQTGGYSDGLAASQMYSPQGISANGGWQDATTPSSVTSPTEGPGSVHSDTSN
notes: as for B6
B11: PBX1 V80A (natural protein, human, UniProt P40424 1-430, looked up)
chain: MDEQPRLMHSHAGVGMAGHPGLSQHLQDGAGGTEGEGGRKQDIGDILQQIMTITDQSLDEAQARKHALNCHRMKPALFNALCEIKEKTVLSIRGAQEEEPTDPQLMRLDNMLLAEGVAGPEKGGGSAAAAAAAAASGGAGSDNSVEHSDYRAKLSQIRQIYHTELEKYEQACNEFTTHVMNLLREQSRTRPISPKEIERMVSIIHRKFSSIQMQLKQSTCEAVMILRSRFLDARRKRRNFNKQATEILNEYFYSHLSNPYPSEEAKEELAKKCGITVSQVSNWFGNKRIRYKKNIGKFQEEANIYAAKTAVTATNVSAHGSQANSPSTPNSAGSSSSFNMSNSGDLFMSVQSLNGDSYQGAQVGANVQSQVDTLRHVISQTGGYSDGLAASQMYSPQGISANGGWQDATTPSSVTSPTEGPGSVHSDTSN
notes: as for B1
B12: PBX1 V80A/L81A (natural protein, human, UniProt P40424 1-430, looked up)
chain: MDEQPRLMHSHAGVGMAGHPGLSQHLQDGAGGTEGEGGRKQDIGDILQQIMTITDQSLDEAQARKHALNCHRMKPALFNAACEIKEKTVLSIRGAQEEEPTDPQLMRLDNMLLAEGVAGPEKGGGSAAAAAAAAASGGAGSDNSVEHSDYRAKLSQIRQIYHTELEKYEQACNEFTTHVMNLLREQSRTRPISPKEIERMVSIIHRKFSSIQMQLKQSTCEAVMILRSRFLDARRKRRNFNKQATEILNEYFYSHLSNPYPSEEAKEELAKKCGITVSQVSNWFGNKRIRYKKNIGKFQEEANIYAAKTAVTATNVSAHGSQANSPSTPNSAGSSSSFNMSNSGDLFMSVQSLNGDSYQGAQVGANVQSQVDTLRHVISQTGGYSDGLAASQMYSPQGISANGGWQDATTPSSVTSPTEGPGSVHSDTSN
notes: as for B1

target: T1, PREP1_(1-436), wild-type recombinant …; assay: time-resolved fluorescence immunoassay (TR-FIA); plate coated with monoclonal anti-PBX1; PBX1 pre-incubated with PREP1 or MEIS1 for 1 h on ice, 10 µg/mL in 1% BSA PBS, 1 h at room temperature on the plate; detected with anti-PREP1 or biotinylated anti-MEIS1/2 and Eu^3+ conjugates; normalised to the wild-type protein taken as 1; conditions: both partners purified

| Binder | binding result |
| --- | --- |
| B1 | binds |
| B2 | binds |
| B3 | binds |
| B4 | binds |
| B5 | binds |
| B6 | binds |
| B7 | binds |
| B8 | binds |
| B9 | binds |
| B10 | binds |
| B11 | binds |
| B12 | binds |
